Assay [1] concerns the target Human FcγRIIb (human) (UniProt P31994). The experiment in a line: SPR (Biacore); His-tagged FcγR captured on anti-penta-His chip, antibody injected.
For assay [2], the target named is Human FcγRIIa (H131) (human) (UniProt P12318). The description is as above.
The target in assay [3] is Human FcγRIIIa (V176) (human) (UniProt P08637). The description is as above.
Assay [4] addresses Human FcγRIIa (R131) (human) (UniProt P12318). The description is as above.
Assay [5] has as its target Human FcγRIIb (human) (UniProt P31994). The experiment in a line: SPR (Biacore); His-tagged FcγR captured, antibody injected; kinetic fit or steady state.
For assay [6], the target named is Human FcγRIIa (H131) (human) (UniProt P12318). Described as above.
In assay [7] the target is Human FcγRIIa (R131) (human) (UniProt P12318). The assay is described as above.
Sequence of Human FcγRIIa (R131) (human) (P12318 36-218 H167R limits assumed): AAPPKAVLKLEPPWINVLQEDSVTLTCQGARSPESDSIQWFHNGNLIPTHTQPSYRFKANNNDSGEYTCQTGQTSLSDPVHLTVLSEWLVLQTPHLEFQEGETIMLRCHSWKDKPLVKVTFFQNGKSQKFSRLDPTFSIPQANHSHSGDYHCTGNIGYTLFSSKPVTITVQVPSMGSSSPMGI

Our source for the binding signal (RU) and Kd values is US20250109207A1.

Sequence of Human FcγRIIb (human) (P31994 46-217 limits assumed): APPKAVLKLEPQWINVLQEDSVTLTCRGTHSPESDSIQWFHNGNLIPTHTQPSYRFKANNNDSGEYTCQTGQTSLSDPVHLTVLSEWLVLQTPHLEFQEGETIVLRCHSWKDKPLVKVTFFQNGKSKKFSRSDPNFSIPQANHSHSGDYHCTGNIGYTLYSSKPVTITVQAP
Sequence of Human FcγRIIa (H131) (human) (P12318 36-218 limits assumed): as the sequence (P12318 36-218 H167R limits assumed) above, with R132H counted along it
Sequence of Human FcγRIIIa (V176) (human) (P08637 17-208 F176V limits assumed): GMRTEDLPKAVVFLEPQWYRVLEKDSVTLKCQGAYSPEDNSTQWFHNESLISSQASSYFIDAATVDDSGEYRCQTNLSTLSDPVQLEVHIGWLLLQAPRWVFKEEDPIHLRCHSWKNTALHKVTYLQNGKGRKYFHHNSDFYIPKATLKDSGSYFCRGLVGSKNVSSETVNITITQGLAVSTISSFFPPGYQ

B1: mAb3, IgG4s (antibody, part only; not given: variable domains and light chain, not shown: another chain or arm of the molecule)
Fc: ESKYGPPCPPCPAPPVAGPSVFLFPPKPKDTLMISRTPEVTCVVVDVSQEDPEVQFNWYVDGVEVHNAKTKPREEQFNSTYRVVSVLTVLHQDWLNGKEYKCKVSNKGLPSSIEKTISKAKGQPREPQVYTLPPSQEEMTKNQVSLTCLVKGFYPSDIAVEWESNGQPENNYKTTPPVLDSDGSFFLYSRLTVDKSRWQEGNVFSCSVMHEALHNHYTQKSLSLSLGK
As a reminder, the Kd is the concentration at which binding is half-saturated. A higher Kd goes with lower affinity. Take B1: the binding signal (RU) with Human FcγRIIb (human) [1] was found to be 226 RU; in assay [2] it was 419 RU; in assay [3], 34 RU; in assay [4], 340 RU. Moreover, the Kd with Human FcγRIIb (human) [5] was 12300 nM; in assay [6] it was 1610 nM; in assay [7], 1320 nM.
